Source: patent US6429304 (University of California, dated 2002)

Biological target: T1, p80 delta 560-690 (S. purpuratus p80 katanin lacking the C-terminal 130 amino acids), in vitro translated … (Strongylocentrotus purpuratus, UniProt O61585 1-559)
T1 construct: The residues kept are derived from the deletion named; also called delta 560-690 derivative of p80; not shown: 37 amino acid N-terminal S-Tag from pCITE-4a+ (Novagen)
T1 sequence: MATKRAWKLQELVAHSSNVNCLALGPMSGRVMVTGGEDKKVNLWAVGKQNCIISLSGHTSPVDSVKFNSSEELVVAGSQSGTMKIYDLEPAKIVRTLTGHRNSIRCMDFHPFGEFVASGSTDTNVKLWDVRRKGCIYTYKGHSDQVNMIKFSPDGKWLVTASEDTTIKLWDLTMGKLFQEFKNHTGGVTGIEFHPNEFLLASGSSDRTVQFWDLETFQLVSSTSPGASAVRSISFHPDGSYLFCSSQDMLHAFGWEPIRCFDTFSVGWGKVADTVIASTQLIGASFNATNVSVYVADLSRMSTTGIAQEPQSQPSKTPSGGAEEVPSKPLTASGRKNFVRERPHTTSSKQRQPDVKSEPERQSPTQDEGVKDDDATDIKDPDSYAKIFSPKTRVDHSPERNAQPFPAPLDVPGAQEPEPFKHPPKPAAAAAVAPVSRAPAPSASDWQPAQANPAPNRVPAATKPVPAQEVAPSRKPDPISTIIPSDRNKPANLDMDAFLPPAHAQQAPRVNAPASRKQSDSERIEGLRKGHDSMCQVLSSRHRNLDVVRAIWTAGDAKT
Assay: co-translation in rabbit reticulocyte lysate, immunoprecipitation with anti-p60 antibody
Protocol: In vitro synthesis of proteins directly from plasmid DNAs was accomplished using the Single Tube Protein System 2, T7 (Novagen). […] For immunoprecipitations, lysates were incubated on ice with Pansorbin (Calbiochem)-antibody complexes, washed in NET buffer (50 mM Tris-Cl (pH 7.5), 150 mM NaCl, 0.1% Nonidet P40, 1 mM EDTA (pH 8.0), 0.25% gelatin and 0.02% sodium azide), then resuspended in SDS-PAGE sample buffer. In vitro translation products in both the pellets and supernatants from the immunoprecipitations were resolved by SDS-PAGE, transferred to nitrocellulose, probed with S-protein HRP conjugate (Novagen) and detected by chemiluminescence.

B1: in vitro translated S. purpuratus p60 katanin with 37 amino acid N-terminal S-Tag (enzyme)
chain: MSVDEICENTKMGREYALLGNYETSLVYYQGVLQQIQKLLTSVHEPQRKHQWQTIRQELSQEYEHVKNITKTLNGFKSEPAAPEPAPNHRAAPFSHHQHAAKPAAAEPARDPDVWPPPTPVDHRPSPPYQRAARKDPPRRSEPSKPANRAPGNDRGGRGPSDRRGDARSGGGGRGGARGSDKDKNRGGKSDKDKKAPSGEEGDEKKFDPAGYDKDLVENLERDIVQRNPNVHWADIAGLTEAKRLLEEAVVLPLWMPDYFKGIRRPWKGVLMVGPPGTGKTMLAKAVATECGTTFFNVSSASLTSKYHGESEKLVRLLFEMARFYAPSTIFIDEIDSICSKRGTGSEHEASRRVKSELLIQMDGVSGPSAGEESSKMVMVLAATNFPWDIDEALRRRLEKRIYIPLPEIDGREQLLRINLKEVPLADDIDLKSIAEKMDGYSGADITNVCRDASMMAMRRRIQGLRPEEIRHIPKEELNQPSTPADFLLALQKVSKSVGKEDLVKYMAWMEEFGSV
notes: Made in a rabbit reticulocyte coupled transcription-translation reaction; not shown: 37 amino acid N-terminal S-Tag from pCITE-4a+ (Novagen)
Q: Does B1 bind?
A: Result: no binding
